{"source": "paper PMC12704761", "about": "“RAD51AP1 is a versatile RAD51 modulator” (Proceedings of the National Academy of Sciences of the …, 2025)", "binders": {"B1": {"name": "RAD51AP1 C59, wild type K300A; K303A; W304A; P306A; P307A (protein)", "chain": "SPSAESAKPAAVAAAASGGSRSSSSPLVVVSVKSPNQSLRLGLSRLARVKPLHPNATST"}, "B2": {"name": "RAD51AP1 C29 (domain or fragment, UniProt Q96B01 324-352, looked up)", "chain": "SVKSPNQSLRLGLSRLARVKPLHPNATST", "notes": "RAD51AP1, C-terminal 29 residues; lacks Site-N, contains Site-M and Site-C; One of PDB 9QN8, 9QNA, 9QNB, 9QNC holds it; also called RAD51AP1 C29 fragment; RAD51AP1 C-terminal domain"}, "B3": {"name": "RAD51 recombinase (natural protein)", "chain": "MAMQMQLEANADTSVEEESFGPQPISRLEQCGINANDVKKLEEAGFHTVEAVAYAPKKELINIKGISEAKADKILAEAAKLVPMGFTTATEFHQRRSEIIQITTGSKELDKLLQGGIETGSITEMFGEFRTGKTQICHTLAVTCQLPIDRGGGEGKAMYIDTEGTFRPERLLAVAERYGLSGSDVLDNVAYARAFNTDHQTQLLYQASAMMVESRYALLIVDSATALYRTDYSGRGELSARQMHLARFLRMLLRLADEFGVAVVITNQVVAQVDGAAMFAADPKKPIGGNIIAHASTTRLYLRKGRGETRICKIYDSPCLPEAEAMFAINADGVGDAKD", "notes": "RAD51 recombinase, wild type; expressed from the pCH1-derived plasmid pJ9; In the cryo-EM samples it stood as a filament on ssDNA with Ca2+-ATP, Mg2+-ATP or Mg2+-ADP; the introduction speaks of the human genome and the discussion sets 'mouse proteins' of earlier work apart; source: E. coli BL21 (DE3), coexpressed with His-MBP-BRC4 and GroEL, purified (HisTrap, HiTrap Heparin, HiTrap Q)"}}, "key": {"[1]": {"target": "T1, RAD51 recombinase, Q06609", "T1 chain": "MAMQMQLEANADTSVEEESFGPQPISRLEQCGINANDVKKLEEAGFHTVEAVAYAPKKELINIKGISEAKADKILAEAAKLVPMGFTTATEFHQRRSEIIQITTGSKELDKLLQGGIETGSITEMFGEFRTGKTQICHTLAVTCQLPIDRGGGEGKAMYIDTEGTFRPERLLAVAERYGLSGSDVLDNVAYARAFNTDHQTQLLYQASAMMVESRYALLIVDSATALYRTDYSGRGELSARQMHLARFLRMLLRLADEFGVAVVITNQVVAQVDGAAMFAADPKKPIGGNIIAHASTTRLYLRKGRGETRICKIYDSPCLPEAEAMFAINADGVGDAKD", "test": "pull-down", "settings": "chain shown with the change; n = 3; parent: est. 54; read off a plot"}, "RAD51 recombinase": {"target": "B3", "test": "cryo-EM structure; RAD51-ssDNA filaments formed with Mg2+-ATP (7 µM RAD51) mixed with C29 (28 µM); single particle analysis, 3.0 Å", "settings": "both partners purified"}, "[2]": {"target": "T2, RAD51AP1 Site-N mutant, full-length (UniProt Q96B01 1-352, K300 to alanine | K303 to alanine | W304 to alanine | P306 to alanine | P307 to …)", "T2 construct": "RAD51AP1 with five conserved Site-N residues (K300, K303, W304, P306, P307) mutated to alanine; source: expressed from a pET28 vector, purified (HisTrap, HiTrap Heparin, HiTrap Q, gel filtration); not shown: His6, C-terminal, kept", "T2 sequence (looked up)": "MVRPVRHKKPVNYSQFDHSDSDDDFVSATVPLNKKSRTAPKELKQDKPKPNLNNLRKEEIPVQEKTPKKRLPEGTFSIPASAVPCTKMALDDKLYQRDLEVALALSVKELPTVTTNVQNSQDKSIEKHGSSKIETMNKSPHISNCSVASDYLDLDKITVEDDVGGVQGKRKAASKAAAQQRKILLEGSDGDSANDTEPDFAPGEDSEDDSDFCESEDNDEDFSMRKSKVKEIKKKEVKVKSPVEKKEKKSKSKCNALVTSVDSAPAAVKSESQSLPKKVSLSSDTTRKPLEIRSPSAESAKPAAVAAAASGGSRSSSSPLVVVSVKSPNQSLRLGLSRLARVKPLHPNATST", "test": "pull-down; His-tagged full-length RAD51AP1 (1 µM) immobilised on magnetic cobalt resin, RAD51 (1 µM) in pull-down buffer with ATP and Mg2+, 37 °C, 5 min; SDS-PAGE of supernatant and eluate", "settings": "both partners purified"}, "[3]": {"target": "T3, RAD51AP1-H346A (Site-C mutant), full-length (UniProt Q96B01 1-352, H346A)", "T3 construct": "RAD51AP1 with H346A; source: expressed from a pET28 vector, purified (HisTrap, HiTrap Heparin, HiTrap Q, gel filtration); not shown: His6, C-terminal, kept", "T3 sequence (looked up)": "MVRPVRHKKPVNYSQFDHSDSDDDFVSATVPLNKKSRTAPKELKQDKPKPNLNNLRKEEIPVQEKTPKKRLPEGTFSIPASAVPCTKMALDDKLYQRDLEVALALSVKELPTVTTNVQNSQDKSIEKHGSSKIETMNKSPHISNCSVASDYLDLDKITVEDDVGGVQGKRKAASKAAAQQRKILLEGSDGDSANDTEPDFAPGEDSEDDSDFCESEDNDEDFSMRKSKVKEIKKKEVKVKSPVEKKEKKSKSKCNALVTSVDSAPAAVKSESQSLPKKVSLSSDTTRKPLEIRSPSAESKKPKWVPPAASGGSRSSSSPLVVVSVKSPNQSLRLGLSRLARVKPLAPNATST", "test": "BLI; RAD51AP1 with C-terminal hexahistidine tag on nickel-NTA biosensors, RAD51 2.5 µM to 39 nM, Octet Red, 25 °C, Kd from response against concentration, 1:1 model", "settings": "both partners purified"}, "[4]": {"target": "T4, RAD51AP1 Site-NC double mutant, full-length (UniProt Q96B01 1-352, K300 to alanine | K303 to alanine | W304 to alanine | P306 to alanine | P307 to …)", "T4 construct": "RAD51AP1 in which both Site-N (K300, K303, W304, P306, P307 to alanine) and Site-C (H346A) are mutated; also called Site-N and Site-C double mutant; source: expressed from a pET28 vector, purified (HisTrap, HiTrap Heparin, HiTrap Q, gel filtration); not shown: His6, C-terminal, kept", "T4 sequence (looked up)": "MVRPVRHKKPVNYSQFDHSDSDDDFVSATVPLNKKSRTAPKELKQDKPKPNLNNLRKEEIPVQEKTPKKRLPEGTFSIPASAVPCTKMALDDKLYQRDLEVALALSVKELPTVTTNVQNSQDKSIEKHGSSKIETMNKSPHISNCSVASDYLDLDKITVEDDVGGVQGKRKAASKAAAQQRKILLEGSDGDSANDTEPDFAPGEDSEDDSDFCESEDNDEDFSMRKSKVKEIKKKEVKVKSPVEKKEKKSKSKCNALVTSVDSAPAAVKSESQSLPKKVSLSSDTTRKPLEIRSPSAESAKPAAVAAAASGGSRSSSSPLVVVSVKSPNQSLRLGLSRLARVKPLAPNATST", "test": "BLI; RAD51AP1 with C-terminal hexahistidine tag on nickel-NTA biosensors, RAD51 2.5 µM to 39 nM, Octet Red, 25 °C, Kd from response against concentration, 1:1 model", "settings": "both partners purified"}, "[5]": {"target": "T5, RAD51AP1 (RAD51 associated protein 1), full-length wild type (UniProt Q96B01 1-352)", "T5 construct": "RAD51AP1, synthetic gene from Invitrogen; printed residue numbers (H346); One of PDB 9QN8, 9QNA, 9QNB, 9QNC holds its modelled residues; Detailed protocols are in SI Appendix, Supplementary Methods; also called WT; source: expressed from a pET28 vector, purified (HisTrap, HiTrap Heparin, HiTrap Q, gel filtration); not shown: His6, C-terminal, kept", "T5 sequence (looked up)": "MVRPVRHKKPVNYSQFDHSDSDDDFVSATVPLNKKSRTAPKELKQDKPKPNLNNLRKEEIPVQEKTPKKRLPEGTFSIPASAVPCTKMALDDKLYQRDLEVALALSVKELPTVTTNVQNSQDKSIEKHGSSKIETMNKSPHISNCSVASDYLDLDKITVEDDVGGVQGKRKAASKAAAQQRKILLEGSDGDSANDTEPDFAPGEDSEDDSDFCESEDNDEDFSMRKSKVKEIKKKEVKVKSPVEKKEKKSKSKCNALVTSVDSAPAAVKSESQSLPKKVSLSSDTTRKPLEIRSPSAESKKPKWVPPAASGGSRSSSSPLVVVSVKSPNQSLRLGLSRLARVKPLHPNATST", "test": "BLI; RAD51AP1 with C-terminal hexahistidine tag on nickel-NTA biosensors, RAD51 2.5 µM to 39 nM, Octet Red, 25 °C, Kd from response against concentration, 1:1 model", "settings": "both partners purified"}}}
{"binder": "B1", "values": [{"measurement": "response", "setting": "[1]", "value": 60, "unit": "%"}]}
{"binder": "B2", "values": [{"measurement": "binding result", "setting": "RAD51 recombinase", "value": "binds"}]}
{"binder": "B3", "values": [{"measurement": "binding result", "setting": "[2]", "value": "binds"}, {"measurement": "fold decrease in binding affinity against wild-type RAD51AP1", "setting": "[3]", "value": "~2.5", "unit": "fold"}, {"measurement": "fold reduction in affinity against wild-type RAD51AP1", "setting": "[4]", "value": "~4", "unit": "fold"}, {"measurement": "Kd", "setting": "[5]", "value": "~600", "unit": "nM"}]}
